This is an account of results in US20140105889A1 (published 2014).

For test [1], the target named is T1, human FcγRIIIa type V (allotype V158) (human, UniProt P08637 17-208, limits assumed).
T1 construct: the assay used allotype V158; also called FcγRIIIaV; FcγRIIIa(V)
The test can be described thus: SPR (Biacore), antibody captured on the chip, FcγR as analyte.

Test [2] deals with T2, human FcγRIIa type H (allotype H131) (human, UniProt P12318 36-217).
T2 construct: also called FcγRIIaH; FcγRIIa(H)
T2 sequence: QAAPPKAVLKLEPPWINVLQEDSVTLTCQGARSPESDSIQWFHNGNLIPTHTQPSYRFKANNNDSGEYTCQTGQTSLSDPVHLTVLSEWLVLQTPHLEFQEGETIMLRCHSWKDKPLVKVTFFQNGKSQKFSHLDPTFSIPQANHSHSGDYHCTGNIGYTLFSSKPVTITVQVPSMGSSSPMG
Described as above.

Another test deals with T3, human FcγRIIb (human, UniProt P31994 43-217).
T3 construct: also called FcγIIB
T3 sequence: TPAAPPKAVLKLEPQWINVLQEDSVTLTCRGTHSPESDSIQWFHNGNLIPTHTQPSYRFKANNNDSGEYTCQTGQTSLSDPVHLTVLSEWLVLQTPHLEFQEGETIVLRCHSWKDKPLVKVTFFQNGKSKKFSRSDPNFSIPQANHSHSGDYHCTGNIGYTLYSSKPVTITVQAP
The test can be described thus: SPR (Biacore); KD of parent IL6R-B3/IL6R-L for FcγRIIb divided by KD of the variant for FcγRIIb. In general terms: Surface plasmon resonance follows binding to a sensor surface in real time, without labels.

In the next test the target is T4, human FcRn (human).
T4 construct: also called hFcRn; soluble human FcRn complexed with β2-microglobulin
The test can be described thus: SPR (Biacore), pH 7.0, 25 C, antibody captured by Protein L, human FcRn as analyte.

T1 sequence (P08637 other isoform, or with tags, fused parts or gaps limits assumed): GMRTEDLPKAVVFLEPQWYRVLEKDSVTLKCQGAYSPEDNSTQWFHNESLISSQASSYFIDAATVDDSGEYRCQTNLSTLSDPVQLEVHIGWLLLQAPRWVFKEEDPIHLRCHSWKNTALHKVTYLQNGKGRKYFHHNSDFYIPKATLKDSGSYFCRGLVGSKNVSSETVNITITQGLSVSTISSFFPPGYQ
T4 sequence (chain, as listed by the source limits assumed, chain 1 of 2): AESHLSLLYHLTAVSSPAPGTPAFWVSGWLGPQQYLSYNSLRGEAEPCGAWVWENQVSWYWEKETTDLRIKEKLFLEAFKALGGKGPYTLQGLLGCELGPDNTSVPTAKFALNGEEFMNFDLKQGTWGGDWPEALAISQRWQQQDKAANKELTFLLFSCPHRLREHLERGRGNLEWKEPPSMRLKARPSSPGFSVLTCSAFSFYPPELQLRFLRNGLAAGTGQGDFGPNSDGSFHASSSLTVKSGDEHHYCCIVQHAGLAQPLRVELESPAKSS
T4 sequence (P61769 21-119 limits assumed, chain 2 of 2): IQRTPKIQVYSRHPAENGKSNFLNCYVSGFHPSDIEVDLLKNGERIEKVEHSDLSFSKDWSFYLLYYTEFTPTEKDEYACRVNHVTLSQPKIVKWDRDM
Protocol for human FcRn: A kinetic analysis of binding between human FcRn and the aforementioned antibodies was carried out using the Biacore T100 or T200 (GE Healthcare). The antibodies being tested were captured on the CM4 Sensor Chip (GE Healthcare) on which a suitable amount of Protein L (ACTIGEN) was suitably immobilized by amine coupling. Next, diluted human FcRn and a running buffer used as a blank were injected to allow the human FcRn to interact with the antibody captured on the sensor chip. A buffer consisting of 50 mmol/L sodium phosphate, 150 mmol/L NaCl and 0.05% (w/v) Tween 20 (pH 7.0 or pH 7.4) was used for the running buffer, and each buffer was also used to dilute the human FcRn. 10 mmol/L glycine-HCl (pH 1.5) was used to regenerate the sensor chip. All measurements of binding were carried out at 25° C. The KD(M) of each antibody to human FcRn was calculated based on kinetics parameters, i.e., the association rate constant ka (1/Ms) and the dissociation rate constant kd (1/s) calculated from a sensorgram obtained by the measurement. The Biacore T100 or T200 Evaluation Software (GE Healthcare) was used to calculate each parameter.
Description for human FcγRIIb: Furthermore, KD(IIaR)/KD(IIb) and KD(IIaH)/KD(IIb) in the table respectively represent the value obtained by dividing the KD value of each variant for FcγRIIaR by the KD value of each variant for FcγRIIb, and the value obtained by dividing the KD value of each variant for FcγRIIaH by the KD value of each variant for FcγRIIb.

B1: IL6R-BP194/IL6R-L (antibody, human IgG1)
heavy: QVQLQESGPGLVKPSETLSLTCAVSGHSISHDHAWSWVRQPPGEGLEWIGFISYSGITNYNPSLQGRVTISRDNSKNTLYLQMNSLRAEDTAVYYCARSLARTTAMDYWGEGTLVTVSSASTKGPSVFPLAPSSKSTSGGTAALGCLVKDYFPEPVTVSWNSGALTSGVHTFPAVLQSSGLYSLSSVVTVPSSSLGTQTYICNVNHKPSNTKVDKKVEPKSCDKTHTCPPCPAPDYLGDDSVFLFPPKPKDTLMISRTPEVTCVVVDVSDEDGEVKFNWYVDGVEVHNAKTKPREEQYNSTYRVVSVLTVLHQDWLNGKEYKCKVSNAALPKPIEKTISKAKGQPREPQVYTLPPSRDELTKNQVSLTCLVKGFYPSDIAVEWESNGQPENNYKTTPPVLDSDGSFFLYSKLTVDKSRWQQGNVFSCSVMHEALHNHYTQESLSLSP
light: DIQMTQSPSSLSASVGDRVTITCRASQDISSYLNWYQQKPGKAPKLLIYYTSRLHSGVPSRFSGSGSGTDFTFTISSLQPEDIATYYCQQGNTLPYTFGQGTKVEIK
notes: Anti-human IL-6 receptor human IgG1 variant; copies: 2 + 2
For the molecule B1, the Kd (usually a measure of binding affinity in units of concentration) in test [1] turned out to be 27 µM; in test [2], 6.5 µM. The “KD(IIb) of the parent polypeptide/KD(IIb) of the altered polypeptide” value (“KD(IIb)” below) with human FcγRIIb worked out at 59.4.

B2: IL6R-BP189/IL6R-L (antibody, human IgG1)
heavy: QVQLQESGPGLVKPSETLSLTCAVSGHSISHDHAWSWVRQPPGEGLEWIGFISYSGITNYNPSLQGRVTISRDNSKNTLYLQMNSLRAEDTAVYYCARSLARTTAMDYWGEGTLVTVSSASTKGPSVFPLAPSSKSTSGGTAALGCLVKDYFPEPVTVSWNSGALTSGVHTFPAVLQSSGLYSLSSVVTVPSSSLGTQTYICNVNHKPSNTKVDKKVEPKSCDKTHTCPPCPAPELLGDDSVFLFPPKPKDTLMISRTPEVTCVVVDVSDEDGEVKFNWYVDGVEVHNAKTKPREEQYNSTYRVVSVLTVLHQDWLNGKEYKCKVSNAALPKPIEKTISKAKGQPREPQVYTLPPSRDELTKNQVSLTCLVKGFYPSDIAVEWESNGQPENNYKTTPPVLDSDGSFFLYSKLTVDKSRWQQGNVFSCSVMHEALHNHYTQESLSLSP
light: DIQMTQSPSSLSASVGDRVTITCRASQDISSYLNWYQQKPGKAPKLLIYYTSRLHSGVPSRFSGSGSGTDFTFTISSLQPEDIATYYCQQGNTLPYTFGQGTKVEIK
notes: as for B1
As to B2, the Kd in test [1] was determined as 49 µM; in test [2], 2.1 µM. Moreover, the “KD(IIb)” value with human FcγRIIb stood at 41.8.

B3: IL6R-BP202/IL6R-L (antibody, human IgG1)
heavy: QVQLQESGPGLVKPSETLSLTCAVSGHSISHDHAWSWVRQPPGEGLEWIGFISYSGITNYNPSLQGRVTISRDNSKNTLYLQMNSLRAEDTAVYYCARSLARTTAMDYWGEGTLVTVSSASTKGPSVFPLAPSSKSTSGGTAALGCLVKDYFPEPVTVSWNSGALTSGVHTFPAVLQSSGLYSLSSVVTVPSSSLGTQTYICNVNHKPSNTKVDKKVEPKSCDKTHTCPPCPAPELLGDDSVFLFPPKPKDTLMISRTPEVTCVVVDVSHEDGEVKFNWYVDGVEVHNAKTKPREEQYNSTYRVVSVLTVLHQDWLNGKEYKCKVSNAALPRPIEKTISKAKGQPREPQVYTLPPSRDELTKNQVSLTCLVKGFYPSDIAVEWESNGQPENNYKTTPPVLDSDGSFFLYSKLTVDKSRWQQGNVFSCSVMHEALHNHYTQESLSLSP
light: DIQMTQSPSSLSASVGDRVTITCRASQDISSYLNWYQQKPGKAPKLLIYYTSRLHSGVPSRFSGSGSGTDFTFTISSLQPEDIATYYCQQGNTLPYTFGQGTKVEIK
notes: as for B1
The molecule B3 returned a dissociation constant (Kd) in test [2] of 9.2 µM. Further, the “KD(IIb)” value in the test with human FcγRIIb came to 48.4.

B4: IL6R-BP184/IL6R-L (antibody, human IgG1)
heavy: QVQLQESGPGLVKPSETLSLTCAVSGHSISHDHAWSWVRQPPGEGLEWIGFISYSGITNYNPSLQGRVTISRDNSKNTLYLQMNSLRAEDTAVYYCARSLARTTAMDYWGEGTLVTVSSASTKGPSVFPLAPSSKSTSGGTAALGCLVKDYFPEPVTVSWNSGALTSGVHTFPAVLQSSGLYSLSSVVTVPSSSLGTQTYICNVNHKPSNTKVDKKVEPKSCDKTHTCPPCPAPDLLGGDSVFLFPPKPKDTLMISRTPEVTCVVVDVSHEDGEVKFNWYVDGVEVHNAKTKPREEQYNSTYRVVSVLTVLHQDWLNGKEYKCKVSNKALPKPIEKTISKAKGQPREPQVYTLPPSRDELTKNQVSLTCLVKGFYPSDIAVEWESNGQPENNYKTTPPVLDSDGSFFLYSKLTVDKSRWQQGNVFSCSVMHEALHNHYTQESLSLSP
light: DIQMTQSPSSLSASVGDRVTITCRASQDISSYLNWYQQKPGKAPKLLIYYTSRLHSGVPSRFSGSGSGTDFTFTISSLQPEDIATYYCQQGNTLPYTFGQGTKVEIK
notes: as for B1
Consider B4, for which the Kd came out at 66 µM in test [1] and 3 µM in test [2]. For the same molecule, in the test with human FcγRIIb, the “KD(IIb)” value was 24.5.

B5: IL6R-BP201/IL6R-L (antibody, human IgG1)
heavy: QVQLQESGPGLVKPSETLSLTCAVSGHSISHDHAWSWVRQPPGEGLEWIGFISYSGITNYNPSLQGRVTISRDNSKNTLYLQMNSLRAEDTAVYYCARSLARTTAMDYWGEGTLVTVSSASTKGPSVFPLAPSSKSTSGGTAALGCLVKDYFPEPVTVSWNSGALTSGVHTFPAVLQSSGLYSLSSVVTVPSSSLGTQTYICNVNHKPSNTKVDKKVEPKSCDKTHTCPPCPAPDLLGDDSVFLFPPKPKDTLMISRTPEVTCVVVDVSHEDGEVKFNWYVDGVEVHNAKTKPREEQYNSTYRVVSVLTVLHQDWLNGKEYKCKVSNKALPRPIEKTISKAKGQPREPQVYTLPPSRDELTKNQVSLTCLVKGFYPSDIAVEWESNGQPENNYKTTPPVLDSDGSFFLYSKLTVDKSRWQQGNVFSCSVMHEALHNHYTQESLSLSP
light: DIQMTQSPSSLSASVGDRVTITCRASQDISSYLNWYQQKPGKAPKLLIYYTSRLHSGVPSRFSGSGSGTDFTFTISSLQPEDIATYYCQQGNTLPYTFGQGTKVEIK
notes: as for B1
The molecule B5 registered a Kd in test [2] of 6.9 µM. Besides, the “KD(IIb)” value in the test with human FcγRIIb was determined as 77.1.

B6: F1076 (antibody, human IgG1, kappa, name in EU numbering)
heavy: QVQLQESGPGLVKPSETLSLTCAVSGHSISHDHAWSWVRQPPGEGLEWIGFISYSGITNYNPSLQGRVTISRDNSKNTLYLQMNSLRAEDTAVYYCARSLARTTAMDYWGEGTLVTVSSASTKGPSVFPLAPSSKSTSGGTAALGCLVKDYFPEPVTVSWNSGALTSGVHTFPAVLQSSGLYSLSSVVTVPSSSLGTQTYICNVNHKPSNTKVDKKVEPKSCDKTHTCPPCPAPELLGGPDVFLFPPKPKDTLYISRTPEVTCVVVDVSHEDPEVKFNWYVDGVEVHNAKTKPREEQYNSTYRVVSVLTVLHQDWLNGKEYKCKVSNDAYPAPIEKTISKAKGQPREPQVYTLPPSRDELTKNQVSLTCLVKGFYPSDIAVEWESNGQPENNYKTTPPVLDSDGSFFLYSKLTVDKSRWQQGNVFSCSVMHEALHYHVTQKSLSLSP
light: not shown
notes: copies: 2 + 2
B6 yielded a Kd with human FcRn of 0.127 µM.

B7: F1078 (antibody, human IgG1, kappa, name in EU numbering)
heavy: QVQLQESGPGLVKPSETLSLTCAVSGHSISHDHAWSWVRQPPGEGLEWIGFISYSGITNYNPSLQGRVTISRDNSKNTLYLQMNSLRAEDTAVYYCARSLARTTAMDYWGEGTLVTVSSASTKGPSVFPLAPSSKSTSGGTAALGCLVKDYFPEPVTVSWNSGALTSGVHTFPAVLQSSGLYSLSSVVTVPSSSLGTQTYICNVNHKPSNTKVDKKVEPKSCDKTHTCPPCPAPELLGGPSVFLFPPKPKDTLYISRTPEVTCVVVDVSHEDPEVKFNWYVDGVEVHNAKTKPREEQYNSTYRVVSVLTVLHQDWLNGKEYKCKVSNKALPAPIEKTISKAKGQPREPQVYTLPPSRDELTKNQVSLTCLVKGFYPSDIAVNWSSNGQPENNYKTTPPVLDSDGSFFLYSKLTVDKSRWQQGNVFSCSVMHEALHYHYTQKSLSLSP
light: not shown
notes: copies: 2 + 2
In the case of B7, in the test with human FcRn, the dissociation constant (Kd) worked out at 0.47 µM. This Kd is about 3.7-fold higher than that of the molecule before.

B8: F1099 (antibody, human IgG1, kappa, name in EU numbering)
heavy: QVQLQESGPGLVKPSETLSLTCAVSGHSISHDHAWSWVRQPPGEGLEWIGFISYSGITNYNPSLQGRVTISRDNSKNTLYLQMNSLRAEDTAVYYCARSLARTTAMDYWGEGTLVTVSSASTKGPSVFPLAPSSKSTSGGTAALGCLVKDYFPEPVTVSWNSGALTSGVHTFPAVLQSSGLYSLSSVVTVPSSSLGTQTYICNVNHKPSNTKVDKKVEPKSCDKTHTCPPCPAPELLGGPSVFLFPPKPKDTLYISRTPEVTCVVVDVSHEDPEVKFNWYVDGVEVHNAKTKPREEQYNSTYRVVSVLTVLHQDWLNGKEYKCKVSNDAYPAPIEKTISKAKGQPREPQVYTLPPSRDELTKNQVSLTCLVKGFYPSDIAVEWESNGQPENNYKTTPPVLDSDGSFFLYSKLTVDKSRWQQGNVFSCSVMHEALHYHYTQKSLSLSP
light: not shown
notes: copies: 2 + 2
Turning to B8, binding with human FcRn was put at a Kd of 0.257 µM.

B9: F1079 (antibody, human IgG1, kappa, name in EU numbering)
heavy: QVQLQESGPGLVKPSETLSLTCAVSGHSISHDHAWSWVRQPPGEGLEWIGFISYSGITNYNPSLQGRVTISRDNSKNTLYLQMNSLRAEDTAVYYCARSLARTTAMDYWGEGTLVTVSSASTKGPSVFPLAPSSKSTSGGTAALGCLVKDYFPEPVTVSWNSGALTSGVHTFPAVLQSSGLYSLSSVVTVPSSSLGTQTYICNVNHKPSNTKVDKKVEPKSCDKTHTCPPCPAPELLGGPSVFLFPPKPKDTLYISRTPEVTCVVVDVSHEDPEVKFNWYVDGVEVHNAKTKPREEQYNSTYRVVSVLTVLHQDWLNGKEYKCKVSNKALPAPIEKTISKAKGQPREPQVYTLPPSRDELTKNQVSLTCLVKGFYPSDIAVEWNSSGQPENNYKTTPPVLDSDGSFFLYSKLTVDKSRWQQGNVFSCSVMHEALHYHYTQKSLSLSP
light: not shown
notes: copies: 2 + 2
Regarding B9, the Kd in the test with human FcRn is 0.344 µM.
